Results taken from US20210403555A1 (JAPANESE FOUNDATION FOR CANCER RESEARCH, published 2021).
Substitutions are numbered along the chain they refer to. Each block holds one binder with its values, some of them ahead of it.

What was measured:
[1] = target: T1, Recombinant human podoplanin Fc chimera protein (R&D, 3670-PL) (human, UniProt Q86YL7 23-128); assay: competition ELISA: inhibition of podoplanin-Fc binding to CLEC-2 on solid phase
T1 construct: Bought reagent; not shown: Fc part of the bought chimera (detected with anti-human IgG Fc)
T1 sequence (looked up): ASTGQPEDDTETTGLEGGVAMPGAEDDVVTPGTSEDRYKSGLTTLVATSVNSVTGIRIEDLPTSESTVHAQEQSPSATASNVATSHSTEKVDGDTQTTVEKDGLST
Source text: (§1) The culture supernatants collected in Production Examples 1 and 2 were used to measure the inhibitory activity against binding of podoplanin to CLEC-2, following the ELISA protocol described in Patent Document 1.

[2] = target: T1, Recombinant human podoplanin Fc chimera …; assay: competition ELISA: inhibition of podoplanin-Fc binding to CLEC-2 on solid phase; positive control
Source text: as §1
The mouse antibody PG4D2 (PG4D2) was used as a positive control. The mouse antibody PG4D2 is a monoclonal antibody that is obtained from the NITE P-02071 (PG4D2) hybridoma.

[3] = target: T2, Peptide of the human podoplanin PLAG4 domain (WT-hPLAG4 (Genscript, 788349-1)) (human, UniProt Q86YL7 76-89, limits assumed); assay: ELISA, PLAG4 peptide on solid phase, culture supernatant; the reference itself, set as 100%
T2 construct: domain: PLAG4 domain
T2 peptide (looked up): TGIRIEDLPTSEST
Source text: The culture supernatants collected in Production Examples 1 and 2 were used to measure the binding activity to the podoplanin PLAG4 domain, following the ELISA protocol described in Patent Document 1. A peptide of the human podoplanin PLAG4 domain (WT-hPLAG4 (Genscript, 788349-1)) as an antigen peptide was immobilized on a solid phase, and a preadsorbed goat biotin-conjugated anti-human IgG Fc antibody (Abcam, ab98618) and β-Gal-conjugated streptavidin (Roche Diagnostics, 11112481001) were used for a detection purpose.
The avidity (antibody titer) of each antibody was expressed relative to that of the mouse-human chimeric antibody chPG4D2, which is set as 100%.

B1: Humanized antibody K4 (antibody, human IgG4 S228P, kappa, V domains shown)
VH: EVQLVESGGGLVQPGGSLRLSCAASGFTFSGFGMLWVRQAPGKGLEWVAYISSVSSRIYYADTVKGRFTISRDNAKNSLYLQMNSLRAEDTAVYYCARESYGPAWFAYWGQGTLVTVSS
VL: DIVMTQSPLSLPVTPGEPASISCRSSQHIVHIDGNTYLEWYLQKPGQSPQLLIYKVSNRFSGVPDRFSGSGSGTDFTLKISRVEAEDVGVYYCFQGSHVPYTFGGGTKVEIKR
- IC50 [1]: 0.36 µg/mL

B2: Humanized antibody K5 (antibody, human IgG4 S228P, kappa, V domains shown)
VH: B1 VH with A49S, A75S, S78T
VL: B1 VL
- IC50 [1]: 0.364 µg/mL

The next lines start with the values.

- IC50 [2]: 0.371 µg/mL
B3: Mouse antibody PG4D2 (antibody, V domains shown)
VH: DVQLVESGGGLVQPGGSRKLSCAASGFTFSGFGMLWVRQAPEKGLEWVAYISSVSSRIYYADTVKGRFTISRDNPKNTLFLQMTSLRSEDTAMYYCARESYGPAWFAYWGQGTLVTVSA
VL: DVLMTQTPLSLPVSLGDQASISCRSSQHIVHIDGNTYLEWYLQQPGQSPKLLIYKVSNRFSGVPDRFSGSGSGTDFTLRISRVEAEDLGVYYCFQGSHVPYTFGGGTKLEMK

- IC50 [1]: 0.406 µg/mL
- Avidity (antibody titer) (%) relative to chPG4D2 [3]: 100%
B4: Mouse-human chimeric antibody chPG4D2 (antibody, human IgG4 S228P, kappa, V domains shown)
VH: B3 VH
VL: DVLMTQTPLSLPVSLGDQASISCRSSQHIVHIDGNTYLEWYLQQPGQSPKLLIYKVSNRFSGVPDRFSGSGSGTDFTLRISRVEAEDLGVYYCFQGSHVPYTFGGGTKLEMKR
